± gives the uncertainty stated by the source.
Experiment: self-splicing fitness, log relative to wild type (ln ratio); higher = more splicing; Tetrahymena group I intron in knt gene, E. coli kanamycin selection, DiMSum; sequences stand for … in CUCUCU…GGAGGGAAAAGUUAUCAGGCAUGCACCUGGUAGCUAGUCUUUAAACCAAUAGAUUGCAUCGGUUUAAAAGGCAAGACCGUCAAAUUGCGGGAAAGGGGUCAACAGCCGUUCAGUACCAAGUCUCAGGGGAAACUUUGAGAUGGCCUUGCAAAGGGUAUGGUAAUAAGCUGACGGACAUGGUCCUAACCACGCAGCCAAGUCCUAAGUCAACAGAUCUUCUGUUGAUAUGGAUGCAGUUCACAGACUAAAUGUCGGUCGGGGAAGAUGUAUUCUUCUCAUAAGAUAUAGUCGGACCUCUCCUUAAUGGGAGCUAGCGGAUGAAGUGAUGCAACACUGGAGCCGCUGGGAACUAAUUUGUAUGCGAAAGUAUAUUGAUUAGUUUUGGAGUACUCGUGGUCG
How it was run: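 A randomised library covering all eight P1ex-region intron nucleotides was built with the intron in the knt kanamycin-resistance gene on pET-22b(+) and held in E. coli BL21(DE3). Cells were grown overnight at 37°C or 30°C on LB agar, with or without 25 μg/mL kanamycin, plus 100 μg/mL carbenicillin, 50 μM IPTG and 0.2% rhamnose, and pooled colonies were amplicon-sequenced on an Illumina HiSeq 2500. DiMSum fitness is the error-weighted combination of wild-type-normalised replicate fold changes, kanamycin versus none.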

Sequence	self-splicing fitness (ln) (30 °C)	self-splicing fitness (ln) (37 °C)
UAAUAGCAAUAUUACGGGGC	-3.12 ± 0.31	-2.84 ± 0.31
UAAUAGCAAUAUUACGGGUC	-3.33 ± 0.3	-1.58 ± 0.28
UAAUAGCAAUAUUACGUAAG	-2.47 ± 0.21	-0.977 ± 0.15
UAAUAGCAAUAUUACGUACA	-1.05 ± 0.11	-0.0465 ± 0.13
UAAUAGCAAUAUUACGUAUC		-2.68 ± 0.48
UAAUAGCAAUAUUACGUAUU	-4.09 ± 0.28	-1.95 ± 0.16
UAAUAGCAAUAUUACGUCAA	-2.33 ± 0.17	-1.77 ± 0.15
UAAUAGCAAUAUUACGUGCG	0.0578 ± 0.065	-0.0439 ± 0.091
UAAUAGCAAUAUUACGUUGA	-2.67 ± 0.2	-2.54 ± 0.18
UAAUAGCAAUAUUACGUUGU	-3.53 ± 0.18	-1.98 ± 0.19
UACAAGCAAUAUUACGAAUG	-0.773 ± 0.065	-0.319 ± 0.086
UACAAGCAAUAUUACGACAC	-3.15 ± 0.18	-1.38 ± 0.15
UACAAGCAAUAUUACGACUC	-2.6 ± 0.14	-1.2 ± 0.16
UACAAGCAAUAUUACGAUCC	-3.27 ± 0.27	-1.78 ± 0.24
UACAAGCAAUAUUACGCAAU	-3.44 ± 0.21	-2.47 ± 0.23
UACAAGCAAUAUUACGCAGC	-4 ± 0.42	-2.63 ± 0.39
UACAAGCAAUAUUACGCCUU	-0.984 ± 0.091	-1.04 ± 0.092
UACAAGCAAUAUUACGCGAG	-1.62 ± 0.11	-0.536 ± 0.1
UACAAGCAAUAUUACGGAUU	-3.61 ± 0.15	-0.762 ± 0.09

Sequence	self-splicing fitness (ln) (30 °C)	self-splicing fitness (ln) (37 °C)
UACAAGCAAUAUUACGGCCG	-0.0815 ± 0.085	0.427 ± 0.13
UACAAGCAAUAUUACGGCGA	-0.244 ± 0.072	0.0939 ± 0.087
UACAAGCAAUAUUACGGUAG	-2.15 ± 0.089	-1.43 ± 0.086
UACAAGCAAUAUUACGUACC	-2.83 ± 0.19	-1.93 ± 0.19
UACAAGCAAUAUUACGUAUU	-4.29 ± 0.19	-2.32 ± 0.13
UACAAGCAAUAUUACGUCAC	-3.37 ± 0.2	-2.41 ± 0.17
UACAAGCAAUAUUACGUCGU	-3.83 ± 0.18	-2.04 ± 0.17
UACAAGCAAUAUUACGUUCC	-3.65 ± 0.28	-2.58 ± 0.25
UACCAGCAAUAUUACGACAC	-2.34 ± 0.13	-1.16 ± 0.15
UACCAGCAAUAUUACGAGUC	-1.59 ± 0.12	-1.24 ± 0.12
UACCAGCAAUAUUACGCACA	-0.477 ± 0.088	0.0379 ± 0.092
UACCAGCAAUAUUACGCGAC	-3.1 ± 0.11	-1.58 ± 0.12
UACCAGCAAUAUUACGCGCG	0.11 ± 0.068	0.573 ± 0.09
UACCAGCAAUAUUACGCGGG	-3.61 ± 0.21	-1.31 ± 0.17
UACCAGCAAUAUUACGCUAG	-1.76 ± 0.074	-1.03 ± 0.083
UACCAGCAAUAUUACGCUCG	-0.415 ± 0.093	-0.203 ± 0.11
UACCAGCAAUAUUACGGACU	-0.102 ± 0.073	0.199 ± 0.098
UACCAGCAAUAUUACGGAGU	-3.23 ± 0.13	-2.4 ± 0.17
UACCAGCAAUAUUACGGCGU	-0.619 ± 0.055	-0.341 ± 0.072

From the supplement of paper PMC7877785
